Starred links: 1 amine or outer side, 2 acyl side, 3 side chain; linkers in the order of their positions; H or OH if unused. Non-standard residues stand in square brackets, D forms with d. Groups on a side chain read outwards from the residue. No end group written: not given here. *: point of attachment. C20 diacid = O=C(O)CCCCCCCCCCCCCCCCCCC(=O)*; γGlu = O=C(O)[C@H](CCC(=O)[*:2])N[*:1]; αMeL = CC(C)C[C@](C)(N)C(=O)O; AEEA = NCCOCCOCC(=O)O; Aib = CC(C)(N)C(=O)O
T1: human glucose-dependent insulinotropic polypeptide (GIP) receptor (human, UniProt P48546 22-466)
T1 construct: whole, on cells; Assayed as crude membranes of stably transfected CHO cells; also called hGIPR; human GIP receptor
T1 sequence (looked up): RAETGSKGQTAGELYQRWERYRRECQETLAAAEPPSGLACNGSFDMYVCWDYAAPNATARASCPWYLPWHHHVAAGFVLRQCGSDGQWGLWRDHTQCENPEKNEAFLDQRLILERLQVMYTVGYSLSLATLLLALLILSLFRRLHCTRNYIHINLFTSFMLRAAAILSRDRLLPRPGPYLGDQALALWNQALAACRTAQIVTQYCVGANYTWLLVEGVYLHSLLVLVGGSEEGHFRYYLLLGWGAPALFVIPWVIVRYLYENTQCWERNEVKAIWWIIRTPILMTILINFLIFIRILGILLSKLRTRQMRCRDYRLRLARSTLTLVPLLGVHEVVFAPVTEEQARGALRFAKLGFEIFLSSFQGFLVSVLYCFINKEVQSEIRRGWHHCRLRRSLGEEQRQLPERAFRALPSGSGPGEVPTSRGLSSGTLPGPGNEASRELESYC

B1: Example 54 (peptide)
peptide: Y[Aib]EGTFISDYSI[αMeL]LDKK([AEEA-AEEA-γGlu-C20 diacid])HQ[Aib]DFVEWLLAGGPSSGAPPPS-NH2
modifications: N-terminus assumed
SMILES: CC[C@H](C)[C@H](NC(=O)[C@H](Cc1ccccc1)NC(=O)[C@@H](NC(=O)CNC(=O)[C@H](CCC(=O)O)NC(=O)C(C)(C)NC(=O)[C@@H](N)Cc1ccc(O)cc1)[C@@H](C)O)C(=O)N[C@@H](CO)C(=O)N[C@@H](CC(=O)O)C(=O)N[C@@H](Cc1ccc(O)cc1)C(=O)N[C@@H](CO)C(=O)N[C@H](C(=O)N[C@@](C)(CC(C)C)C(=O)N[C@@H](CC(C)C)C(=O)N[C@@H](CC(=O)O)C(=O)N[C@@H](CCCCN)C(=O)N[C@@H](CCCCNC(=O)COCCOCCNC(=O)COCCOCCNC(=O)CC[C@H](NC(=O)CCCCCCCCCCCCCCCCCCC(=O)O)C(=O)O)C(=O)N[C@@H](Cc1c[nH]cn1)C(=O)N[C@@H](CCC(N)=O)C(=O)NC(C)(C)C(=O)N[C@@H](CC(=O)O)C(=O)N[C@@H](Cc1ccccc1)C(=O)N[C@H](C(=O)N[C@@H](CCC(=O)O)C(=O)N[C@@H](Cc1c[nH]c2ccccc12)C(=O)N[C@@H](CC(C)C)C(=O)N[C@@H](CC(C)C)C(=O)N[C@@H](C)C(=O)NCC(=O)NCC(=O)N1CCC[C@H]1C(=O)N[C@@H](CO)C(=O)N[C@@H](CO)C(=O)NCC(=O)N[C@@H](C)C(=O)N1CCC[C@H]1C(=O)N1CCC[C@H]1C(=O)N1CCC[C@H]1C(=O)N[C@@H](CO)C(N)=O)C(C)C)[C@@H](C)CC
B2: Example 65 (peptide)
peptide: Y[Aib]EGTFISDYSI[αMeL]LDKK([AEEA-AEEA-γGlu-C20 diacid])HQ[Aib]EFVEYLLEAGPSSGAPPPS-NH2
modifications: N-terminus assumed
SMILES: CC[C@H](C)[C@H](NC(=O)[C@H](Cc1ccccc1)NC(=O)[C@@H](NC(=O)CNC(=O)[C@H](CCC(=O)O)NC(=O)C(C)(C)NC(=O)[C@@H](N)Cc1ccc(O)cc1)[C@@H](C)O)C(=O)N[C@@H](CO)C(=O)N[C@@H](CC(=O)O)C(=O)N[C@@H](Cc1ccc(O)cc1)C(=O)N[C@@H](CO)C(=O)N[C@H](C(=O)N[C@@](C)(CC(C)C)C(=O)N[C@@H](CC(C)C)C(=O)N[C@@H](CC(=O)O)C(=O)N[C@@H](CCCCN)C(=O)N[C@@H](CCCCNC(=O)COCCOCCNC(=O)COCCOCCNC(=O)CC[C@H](NC(=O)CCCCCCCCCCCCCCCCCCC(=O)O)C(=O)O)C(=O)N[C@@H](Cc1c[nH]cn1)C(=O)N[C@@H](CCC(N)=O)C(=O)NC(C)(C)C(=O)N[C@@H](CCC(=O)O)C(=O)N[C@@H](Cc1ccccc1)C(=O)N[C@H](C(=O)N[C@@H](CCC(=O)O)C(=O)N[C@@H](Cc1ccc(O)cc1)C(=O)N[C@@H](CC(C)C)C(=O)N[C@@H](CC(C)C)C(=O)N[C@@H](CCC(=O)O)C(=O)N[C@@H](C)C(=O)NCC(=O)N1CCC[C@H]1C(=O)N[C@@H](CO)C(=O)N[C@@H](CO)C(=O)NCC(=O)N[C@@H](C)C(=O)N1CCC[C@H]1C(=O)N1CCC[C@H]1C(=O)N1CCC[C@H]1C(=O)N[C@@H](CO)C(N)=O)C(C)C)[C@@H](C)CC
B3: Example 63 (peptide)
peptide: Y[Aib]EGTFISDYSI[αMeL]LDKK([AEEA-AEEA-γGlu-C20 diacid])HQ[Aib]EFVEYLLEQGPSSGAPPPS-NH2
modifications: N-terminus assumed
SMILES: CC[C@H](C)[C@H](NC(=O)[C@H](Cc1ccccc1)NC(=O)[C@@H](NC(=O)CNC(=O)[C@H](CCC(=O)O)NC(=O)C(C)(C)NC(=O)[C@@H](N)Cc1ccc(O)cc1)[C@@H](C)O)C(=O)N[C@@H](CO)C(=O)N[C@@H](CC(=O)O)C(=O)N[C@@H](Cc1ccc(O)cc1)C(=O)N[C@@H](CO)C(=O)N[C@H](C(=O)N[C@@](C)(CC(C)C)C(=O)N[C@@H](CC(C)C)C(=O)N[C@@H](CC(=O)O)C(=O)N[C@@H](CCCCN)C(=O)N[C@@H](CCCCNC(=O)COCCOCCNC(=O)COCCOCCNC(=O)CC[C@H](NC(=O)CCCCCCCCCCCCCCCCCCC(=O)O)C(=O)O)C(=O)N[C@@H](Cc1c[nH]cn1)C(=O)N[C@@H](CCC(N)=O)C(=O)NC(C)(C)C(=O)N[C@@H](CCC(=O)O)C(=O)N[C@@H](Cc1ccccc1)C(=O)N[C@H](C(=O)N[C@@H](CCC(=O)O)C(=O)N[C@@H](Cc1ccc(O)cc1)C(=O)N[C@@H](CC(C)C)C(=O)N[C@@H](CC(C)C)C(=O)N[C@@H](CCC(=O)O)C(=O)N[C@@H](CCC(N)=O)C(=O)NCC(=O)N1CCC[C@H]1C(=O)N[C@@H](CO)C(=O)N[C@@H](CO)C(=O)NCC(=O)N[C@@H](C)C(=O)N1CCC[C@H]1C(=O)N1CCC[C@H]1C(=O)N1CCC[C@H]1C(=O)N[C@@H](CO)C(N)=O)C(C)C)[C@@H](C)CC
B4: Example 66 (peptide)
peptide: Y[Aib]EGTFISDYSI[αMeL]LDKK([AEEA-AEEA-γGlu-C20 diacid])HQ[Aib]DFVEYLLETGPSSGAPPPS-NH2
modifications: N-terminus assumed
SMILES: CC[C@H](C)[C@H](NC(=O)[C@H](Cc1ccccc1)NC(=O)[C@@H](NC(=O)CNC(=O)[C@H](CCC(=O)O)NC(=O)C(C)(C)NC(=O)[C@@H](N)Cc1ccc(O)cc1)[C@@H](C)O)C(=O)N[C@@H](CO)C(=O)N[C@@H](CC(=O)O)C(=O)N[C@@H](Cc1ccc(O)cc1)C(=O)N[C@@H](CO)C(=O)N[C@H](C(=O)N[C@@](C)(CC(C)C)C(=O)N[C@@H](CC(C)C)C(=O)N[C@@H](CC(=O)O)C(=O)N[C@@H](CCCCN)C(=O)N[C@@H](CCCCNC(=O)COCCOCCNC(=O)COCCOCCNC(=O)CC[C@H](NC(=O)CCCCCCCCCCCCCCCCCCC(=O)O)C(=O)O)C(=O)N[C@@H](Cc1c[nH]cn1)C(=O)N[C@@H](CCC(N)=O)C(=O)NC(C)(C)C(=O)N[C@@H](CC(=O)O)C(=O)N[C@@H](Cc1ccccc1)C(=O)N[C@H](C(=O)N[C@@H](CCC(=O)O)C(=O)N[C@@H](Cc1ccc(O)cc1)C(=O)N[C@@H](CC(C)C)C(=O)N[C@@H](CC(C)C)C(=O)N[C@@H](CCC(=O)O)C(=O)N[C@H](C(=O)NCC(=O)N1CCC[C@H]1C(=O)N[C@@H](CO)C(=O)N[C@@H](CO)C(=O)NCC(=O)N[C@@H](C)C(=O)N1CCC[C@H]1C(=O)N1CCC[C@H]1C(=O)N1CCC[C@H]1C(=O)N[C@@H](CO)C(N)=O)[C@@H](C)O)C(C)C)[C@@H](C)CC
B5: Example 64 (peptide)
peptide: Y[Aib]EGTFISDYSI[αMeL]LDKK([AEEA-AEEA-γGlu-C20 diacid])HQ[Aib]EFVEYLLETGPSSGAPPPS-NH2
modifications: N-terminus assumed
SMILES: CC[C@H](C)[C@H](NC(=O)[C@H](Cc1ccccc1)NC(=O)[C@@H](NC(=O)CNC(=O)[C@H](CCC(=O)O)NC(=O)C(C)(C)NC(=O)[C@@H](N)Cc1ccc(O)cc1)[C@@H](C)O)C(=O)N[C@@H](CO)C(=O)N[C@@H](CC(=O)O)C(=O)N[C@@H](Cc1ccc(O)cc1)C(=O)N[C@@H](CO)C(=O)N[C@H](C(=O)N[C@@](C)(CC(C)C)C(=O)N[C@@H](CC(C)C)C(=O)N[C@@H](CC(=O)O)C(=O)N[C@@H](CCCCN)C(=O)N[C@@H](CCCCNC(=O)COCCOCCNC(=O)COCCOCCNC(=O)CC[C@H](NC(=O)CCCCCCCCCCCCCCCCCCC(=O)O)C(=O)O)C(=O)N[C@@H](Cc1c[nH]cn1)C(=O)N[C@@H](CCC(N)=O)C(=O)NC(C)(C)C(=O)N[C@@H](CCC(=O)O)C(=O)N[C@@H](Cc1ccccc1)C(=O)N[C@H](C(=O)N[C@@H](CCC(=O)O)C(=O)N[C@@H](Cc1ccc(O)cc1)C(=O)N[C@@H](CC(C)C)C(=O)N[C@@H](CC(C)C)C(=O)N[C@@H](CCC(=O)O)C(=O)N[C@H](C(=O)NCC(=O)N1CCC[C@H]1C(=O)N[C@@H](CO)C(=O)N[C@@H](CO)C(=O)NCC(=O)N[C@@H](C)C(=O)N1CCC[C@H]1C(=O)N1CCC[C@H]1C(=O)N1CCC[C@H]1C(=O)N[C@@H](CO)C(N)=O)[C@@H](C)O)C(C)C)[C@@H](C)CC

Experiments:
human GLP-1 receptor = target: T2, human GLP-1 receptor (human, UniProt P43220 24-463); experiment: SPA, displacement of [125I]-GLP-1 from hGLP-1R membranes, 0.1% bacitracin
T2 construct: whole, on cells; Assayed as crude membranes of stably transfected HEK293 cells; also called hGLP1R; hGLP-1R
Method in brief: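 Binding buffer: 25 mM HEPES pH 7.4, 2.5 mM CaCl₂, 1 mM MgCl₂, 0.1% bacitracin, 0.003% Tween-20, protease inhibitors without EDTA. Four-parameter nonlinear regression; Kᵢ given as geometric mean ± SEM, n = independent replicates run on different days.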

[1] = target: T1, human glucose-dependent insulinotropic …; experiment: SPA, displacement of [125I]-GIP from hGIPR membranes, 0.1% bacitracin
human glucagon receptor = target: T3, human glucagon receptor (human, UniProt P47871 26-477); experiment: SPA, displacement of [125I]-Gcg from hGcgR membranes, 0.1% bacitracin
T3 construct: whole, on cells; Assayed as crude membranes of stably transfected HEK293 cells; also called hGcgR; GcgR
Method in brief: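 Binding buffer: 25 mM HEPES pH 7.4, 2.5 mM CaCl₂, 1 mM MgCl₂, 0.003% Tween-20, protease inhibitors without EDTA. Counted by scintillation after 12 h incubation/settling at room temperature. Four-parameter nonlinear fit; Kᵢ given as geometric mean ± SEM of independent replicates run on different days.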

T3 sequence (P47871 26-477): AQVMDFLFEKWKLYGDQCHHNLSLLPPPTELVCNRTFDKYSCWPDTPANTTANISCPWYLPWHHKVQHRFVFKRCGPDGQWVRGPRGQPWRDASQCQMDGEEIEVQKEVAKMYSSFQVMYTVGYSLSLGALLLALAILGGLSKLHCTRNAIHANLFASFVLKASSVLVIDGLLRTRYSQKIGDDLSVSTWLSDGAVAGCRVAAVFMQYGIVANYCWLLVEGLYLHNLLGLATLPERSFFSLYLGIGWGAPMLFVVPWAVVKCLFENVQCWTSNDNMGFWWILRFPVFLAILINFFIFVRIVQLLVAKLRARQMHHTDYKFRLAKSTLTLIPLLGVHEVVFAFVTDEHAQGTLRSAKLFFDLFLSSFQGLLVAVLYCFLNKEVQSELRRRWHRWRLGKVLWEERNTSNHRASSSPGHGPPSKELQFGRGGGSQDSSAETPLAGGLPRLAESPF

Binder	Ki (human GLP-1 receptor) [nM]	Ki [1] [nM]	Ki (human glucagon receptor) [nM]
B1	49.9	0.0326	386
B2	305	0.0316	279
B3	327	0.0248	185
B4	326	0.0866	279
B5	477	0.022	196

Reference: US20210032299A1 (Eli Lilly, published 2021)
